Source: the RNAGym collection of RNA variant scans (doi:10.1021/acssynbio.7b00057)

B1: Pistol ribozyme (parent)
chain: GGGUCGUUGUUCCAUAAUCGCGUGGAUAUGGCACGCAAGUUUCUACCGGGCACCGUAAAUGUCCGACUGGAGCCGUUCGGGCGGCUAUAAACAGACCUCAGGCCCGAAGCGUGGCGGCACCUGCCGCCGGUGGUAAAAAAGAUCGGAAGAGCACACGUCU

Variants of: B1
Assay: aptazyme ON/OFF ratio, guanine; higher = stronger switching; co-transcriptional cleavage with and without guanine

Variant	aptazyme ON/OFF ratio
U7C G9A U10G U11C C12G	1.32
U7A U8C G9A C12A C13G	1.14
U7G G9A U10G U11G C13A	1.05
U8A G9A C12U C13U	1.11
U7G U8A G9C U10A C12A C13A	1.05
G9U C12G C13G	1.27
U7C U8A G9A U10G U11G	1.04
U7C U8G G9A U10A U11C C12G	1.25
U7C U8G U10C U11C	3.48
U7C U8A G9C U10A U11C C12G C13A	1.29
U8A G9C U10A U11G C13A	1.11
U7A U8A G9C U11G C12G	1.4
U7C U8C C12A C13U	1.34
U7A G9A U10G C12G C13A	1.21
U8C G9C U10C U11G C12U	1.07
U7G U10A U11C C12G C13A	1.1
U7A U8C U11A C13A	1.14
U7A G9A U10A U11C C12A C13U	1.1
U7A G9A U10A C12U	1.21
U7G U8C G9C U10A C12U C13A	1.03
U7C U8C G9U U10G U11G C12G C13G	1.06

Variant	aptazyme ON/OFF ratio
U7G U8G G9U U10A U11A C12A	1.14
U7C U8C G9A U10C U11A C12U C13U	1.3
U7G U8A G9A U11G C13G	1.03
U7A U8G G9U U11C C12U C13G	1.15
U7C U8C G9C U10G U11G C12U C13U	1.06
U7A U8G G9U U10C U11C C12U C13U	1.23
U8C G9A U10A U11A C12G C13A	1.15
U7G U8A G9U C12G C13U	1.17
U8A U10A U11G C12G C13U	1.27
U7C G9A U10G U11C C12A C13U	1.15
U8G G9U U10G U11C C12A	1.02
U7C G9C U10C C12G C13A	1.09
U7C U8C U10C U11C C12U C13U	1.19
U7G U8A G9A U10C U11C C13G	1.02
U8G U11A C12G C13G	1.09
U7C U8G U11G C12A	1.29
U7A U8G G9U U10G U11C C13U	1.05
U7G U8C U10C	2.63
U7C U8A G9C U10A U11A C12G C13G	1.12
U7G U8C G9C U11G C12U C13A	1.3
U10A C13G	1.1

Variant	aptazyme ON/OFF ratio
U7A U8A G9A U10G C12G	1.32
U7G U8A U10G C13G	1.32
U7A U8G U10A U11C C12G	1.15
U7C U8G G9C U10A U11G C12G C13G	1.16
U7A U8A G9U U10C U11A C12A C13G	1.14
U7C U8G U10G U11G	1.63
G9U C12G C13U	1.43
U7G U8G U10A U11G C12G C13G	1.23
U8A G9C C13U	1.17
U8A G9U U10C U11A C12U C13U	1.15
U7G U8A G9C U10A U11G C12U C13G	1.01
U7A U8C U10A U11G C12U C13A	1.28
U7A U10A U11A C12A C13U	1.21
U7C U8A G9U C12U	1.34
U7C U8C U10C U11C C12A C13U	1.24
U7G U10A U11A C12A C13U	1.07
U8C G9C U10C U11C C12U C13G	1
U7A U8C G9A U10G U11G C12U C13A	1.29
U7A U8A U10A U11G C12G C13U	1.35
U7C U8C G9U U11A C12A C13G	1.1
U7A U8A G9U U11C C12A C13G	1.13

Variant	aptazyme ON/OFF ratio
U7A U8C G9A U10G U11G	1.08
U7C U8C G9A U10C U11G C12G	1.36
U8C G9U U11A C12A	1.37
U7A G9A U10C U11G C12A C13U	1.1
U7C G9C U11A C12U C13U	1.05
U8C U10G U11A C12A C13A	1.18
U7C G9C U10A C12A	1.04
U8A G9U U10A C13G	1.1
U7C U8C G9U U11G C13G	1.05
U7G U8G G9U U10C U11A C12U C13U	1.36
U7C G9A C13A	1.05
U7G U8C U10C U11C C12U	1.16
U7C U8A G9U U10A C12A C13A	1.29
U7C U8C G9U U10A U11A C12U C13U	1.18
U8A G9U U10G C12G C13U	1.28
U7C U8G G9C	1.08
U8A G9C U10C U11C C12A C13G	1.01
U7A U8C G9C U10A C12G	1.21
U7G U8A G9A U10C C13G	1.07
U8A G9U U10A U11G C12U C13G	1.17
